Laboratory results as given in patent US20250043302A1, “MUTATED HYDROXYPHENYLPYRUVATE DIOXYGENASE POLYPEPTIDE, AND CODING GENE AND USE THEREOF” (BEIJING DABEINONG BIOTECHNOLOGY CO., LTD., priority 2021, published 2025).

Key:
Format in all cases: in vivo
[1] = system: Arabidopsis thaliana T1 plants; assay: Isoxaflutole tolerance of transgenic Arabidopsis thaliana T1 plants (spray, bleached leaf area grade, damage score); parameters: Scores (pesticide damage): scale not given here; conditions: for Classification and statistics of the grade of pesticide damage: Grade 0 (number of plants) / Classification and statistics of the grade of pesticide damage: Grade 1 (number of plants) / Classification and statistics of the grade of pesticide damage: Grade 2 (number of plants) / Classification and statistics of the grade of pesticide damage: Grade 3 (number of plants): 16 plants; for Classification and statistics of the grade of pesticide damage Grade 0 / Classification and statistics of the grade of pesticide damage Grade 1 / Classification and statistics of the grade of pesticide damage Grade 2 / Classification and statistics of the grade of pesticide damage Grade 3: number of plants in grade
How it was run: (§1)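 Damage was assessed by bleaching grade (0 none; 1 <50%; 2 >50%; 3 100% of leaf area) one week after spraying. Sprays on 18-day-old T1 and wild-type plants used field-rate multiples: topramezone 25–200, isoxaflutole 35–280, mesotrione 52.5–420 g ai/ha.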

[2] = system: Arabidopsis thaliana T1 plants; assay: Topramezone tolerance of transgenic Arabidopsis thaliana T1 plants (spray, bleached leaf area grade, damage score); conditions: for Classification and statistics of the grade of pesticide damage Grade 0: number of plants at grade 0; for Classification and statistics of the grade of pesticide damage Grade 1: number of plants at grade 1; for Classification and statistics of the grade of pesticide damage Grade 2: number of plants at grade 2; for Classification and statistics of the grade of pesticide damage Grade 3: number of plants at grade 3; for Classification and statistics of the grade of pesticide damage: Grade 0 / Classification and statistics of the grade of pesticide damage: Grade 1 / Classification and statistics of the grade of pesticide damage: Grade 2 / Classification and statistics of the grade of pesticide damage: Grade 3: number of plants
How it was run: as §1

[3] = system: Arabidopsis thaliana T1 plants; assay: Mesotrione tolerance of transgenic Arabidopsis thaliana T1 plants (spray, bleached leaf area grade, damage score); parameters: Scores: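 damage score 0-100 computed as Σ(N×S)/(T×M)×100 over grades 0-3 with higher meaning more damage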; conditions: for Grade 0 (classification and statistics of the grade of pesticide damage; number of plants) / Grade 1 (classification and statistics of the grade of pesticide damage; number of plants) / Grade 2 (classification and statistics of the grade of pesticide damage; number of plants) / Grade 3 (classification and statistics of the grade of pesticide damage; number of plants): 16 plants; for Classification and statistics of the grade of pesticide damage Grade 0 / Classification and statistics of the grade of pesticide damage Grade 1 / Classification and statistics of the grade of pesticide damage Grade 2 / Classification and statistics of the grade of pesticide damage Grade 3: number of plants in grade
How it was run: as §1

[4] = isoxaflutole 35 g ai/ha (0.5x field concentration), spray, Arabidopsis thaliana T1 plants
[5] = isoxaflutole 70 g ai/ha (1x field concentration), spray, Arabidopsis thaliana T1 plants
[6] = Table 13, topramezone 25 g ai/ha (1×)
[7] = Table 13, topramezone 100 g ai/ha (4×)
[8] = topramezone 25 g ai/ha (1×), 7 DAT, Table 4
[9] = topramezone 100 g ai/ha (4×), 7 DAT, Table 4
[10] = mesotrione 52.5 g ai/ha, Arabidopsis thaliana T1 plants
[11] = mesotrione 105 g ai/ha, Arabidopsis thaliana T1 plants

B1: AtHPPDm-F372A-02: nucleotide sequence encoding Arabidopsis thaliana HPPD with F372A; vector DBN11731 (nucleic acid)
DNA: ATGGGACATCAGAATGCTGCTGTATCAGAAAATCAAAATCATGATGATGGAGCCGCCTCCTCACCAGGGTTTAAGTTGGTTGGGTTCTCCAAGTTTGTACGGAAGAACCCAAAATCCGACAAGTTCAAGGTTAAACGCTTCCACCACATTGAATTCTGGTGCGGCGACGCCACCAATGTTGCTCGGCGTTTTTCATGGGGTTTAGGCATGAGATTCTCAGCAAAGAGTGACCTGAGCACCGGCAACATGGTTCATGCTAGCTATCTCTTAACATCTGGAGATTTGAGGTTTCTTTTCACGGCGCCGTACTCACCATCACTCTCCGCCGGCGAGATCAAACCCACCACGACTGCAAGCATACCTTCATTTGATCATGGTAGTTGCAGATCCTTCTTCTCGTCGCACGGCCTAGGGGTGCGCGCGGTCGCCATCGAAGTTGAAGATGCAGAATCAGCGTTTAGTATCAGCGTGGCAAATGGAGCTATTCCTTCCTCCCCTCCAATTGTCCTCAATGAGGCTGTAACTATTGCCGAGGTGAAGTTGTATGGAGATGTTGTGCTGAGATATGTTTCTTACAAGGCAGAGGACACTGAGAAATCTGAATTTTTGCCTGGTTTTGAAAGGGTCGAGGATGCTTCAAGTTTTCCTCTTGATTACGGCATACGACGGTTGGATCACGCGGTTGGAAATGTACCAGAACTTGGGCCGGCGCTCACTTATGTGGCTGGTTTCACTGGATTCCATCAATTTGCTGAGTTCACAGCTGATGATGTTGGGACTGCTGAAAGTGGGTTGAACTCTGCAGTCCTCGCCTCTAATGATGAAATGGTGCTCCTCCCGATCAACGAGCCTGTGCATGGCACCAAAAGGAAATCACAAATACAGACATATCTTGAGCACAATGAAGGTGCAGGGCTTCAACATCTTGCACTGATGTCTGAAGACATTTTCCGTACGCTGAGAGAGATGAGGAAGAGAAGTAGTATTGGTGGATTTGACTTCATGCCTTCTCCCCCACCAACTTACTACCAGAACTTGAAGAAGAGGGTTGGTGATGTGCTATCTGATGACCAGATCAAGGAGTGTGAAGAATTGGGCATTCTTGTTGATCGGGACGACCAAGGAACATTACTGCAGATAGCCACAAAACCACTTGGTGACCGCCCCACTATTTTTATTGAGATCATACAAAGAGTCGGCTGCATGATGAAGGATGAGGAAGGAAAAGCATATCAATCTGGTGGTTGTGGCGGCTTTGGGAAAGGAAACTTCTCTGAGCTGTTCAAATCCATCGAGGAGTATGAGAAGACCTTGGAGGCCAAGCAGCTCGTGGGTTGA
modifications: AtHPPDm-F372A-02 Nucleotide Sequence
notes: vector DBN11731
Resistance evaluation ([1]; isoxaflutole 35 g ai/ha): Poorly | Scores ([1]; isoxaflutole 35 g ai/ha): 52 | Resistance evaluation [1, 4]: Poorly | Scores (pesticide damage) [1, 4]: 52 | Classification and statistics of the grade of pesticide damage: Grade 0 (number of plants) [1, 4]: 0 | Classification and statistics of the grade of pesticide damage: Grade 1 (number of plants) [1, 4]: 9 | Classification and statistics of the grade of pesticide damage: Grade 2 (number of plants) [1, 4]: 5 | Classification and statistics of the grade of pesticide damage: Grade 3 (number of plants) [1, 4]: 2 | Classification and statistics of the grade of pesticide damage Grade 0 ([1]; isoxaflutole 35 g ai/ha): 0 | Classification and statistics of the grade of pesticide damage Grade 1 ([1]; isoxaflutole 35 g ai/ha): 9 | Classification and statistics of the grade of pesticide damage Grade 2 ([1]; isoxaflutole 35 g ai/ha): 5 | Classification and statistics of the grade of pesticide damage Grade 3 ([1]; isoxaflutole 35 g ai/ha): 2 | Resistance evaluation ([1]; isoxaflutole 70 g ai/ha): Non-resistant | Scores ([1]; isoxaflutole 70 g ai/ha): 96 | Resistance evaluation [1, 5]: Non-resistant | Scores (pesticide damage) [1, 5]: 96 | Classification and statistics of the grade of pesticide damage: Grade 0 (number of plants) [1, 5]: 0 | Classification and statistics of the grade of pesticide damage: Grade 1 (number of plants) [1, 5]: 0 | Classification and statistics of the grade of pesticide damage: Grade 2 (number of plants) [1, 5]: 2 | Classification and statistics of the grade of pesticide damage: Grade 3 (number of plants) [1, 5]: 14 | Classification and statistics of the grade of pesticide damage Grade 0 ([1]; isoxaflutole 70 g ai/ha): 0 | Classification and statistics of the grade of pesticide damage Grade 1 ([1]; isoxaflutole 70 g ai/ha): 0 | Classification and statistics of the grade of pesticide damage Grade 2 ([1]; isoxaflutole 70 g ai/ha): 2 | Classification and statistics of the grade of pesticide damage Grade 3 ([1]; isoxaflutole 70 g ai/ha): 14 | Resistance evaluation [2, 6]: Poorly | Classification and statistics of the grade of pesticide damage Grade 0 [2, 6]: 4 | Classification and statistics of the grade of pesticide damage Grade 1 [2, 6]: 4 | Classification and statistics of the grade of pesticide damage Grade 2 [2, 6]: 8 | Classification and statistics of the grade of pesticide damage Grade 3 [2, 6]: 0 | Scores ([2]; Table 13, topramezone 25 g ai/ha (1×), pesticide damage score): 42 | Resistance evaluation [2, 7]: Non-resistant | Classification and statistics of the grade of pesticide damage Grade 0 [2, 7]: 0 | Classification and statistics of the grade of pesticide damage Grade 1 [2, 7]: 0 | Classification and statistics of the grade of pesticide damage Grade 2 [2, 7]: 4 | Classification and statistics of the grade of pesticide damage Grade 3 [2, 7]: 12 | Scores ([2]; Table 13, topramezone 100 g ai/ha (4×), pesticide damage score): 92 | Classification and statistics of the grade of pesticide damage: Grade 0 [2, 8]: 4 | Classification and statistics of the grade of pesticide damage: Grade 1 [2, 8]: 4 | Classification and statistics of the grade of pesticide damage: Grade 2 [2, 8]: 8 | Classification and statistics of the grade of pesticide damage: Grade 3 [2, 8]: 0 | Classification and statistics of the grade of pesticide damage: Grade 0 [2, 9]: 0 | Classification and statistics of the grade of pesticide damage: Grade 1 [2, 9]: 0 | Classification and statistics of the grade of pesticide damage: Grade 2 [2, 9]: 4 | Classification and statistics of the grade of pesticide damage: Grade 3 [2, 9]: 12 | Scores ([2]; pesticide damage score 0-100, topramezone 25 g ai/ha (1×), 7 DAT, Table 4): 42 | Scores ([2]; pesticide damage score 0-100, topramezone 100 g ai/ha (4×), 7 DAT, Table 4): 92 | Resistance evaluation [2, 8]: poorly | Resistance evaluation [2, 9]: non-resistant (non-resistant plants (scores 68-100)) | Resistance evaluation ([3]; mesotrione 52.5 g ai/ha): Poorly resistant | Scores ([3]; mesotrione 52.5 g ai/ha): 63 | Resistance evaluation [3, 10]: Poorly resistant | Scores [3, 10]: 63 | Grade 0 (classification and statistics of the grade of pesticide damage; number of plants) [3, 10]: 0 | Grade 1 (classification and statistics of the grade of pesticide damage; number of plants) [3, 10]: 5 | Grade 2 (classification and statistics of the grade of pesticide damage; number of plants) [3, 10]: 8 | Grade 3 (classification and statistics of the grade of pesticide damage; number of plants) [3, 10]: 3 | Classification and statistics of the grade of pesticide damage Grade 0 ([3]; mesotrione 52.5 g ai/ha): 0 | Classification and statistics of the grade of pesticide damage Grade 1 ([3]; mesotrione 52.5 g ai/ha): 5 | Classification and statistics of the grade of pesticide damage Grade 2 ([3]; mesotrione 52.5 g ai/ha): 8 | Classification and statistics of the grade of pesticide damage Grade 3 ([3]; mesotrione 52.5 g ai/ha): 3 | Resistance evaluation ([3]; mesotrione 105 g ai/ha): Non-resistant | Scores ([3]; mesotrione 105 g ai/ha): 100 | Resistance evaluation [3, 11]: Non-resistant | Scores [3, 11]: 100 | Grade 0 (classification and statistics of the grade of pesticide damage; number of plants) [3, 11]: 0 | Grade 1 (classification and statistics of the grade of pesticide damage; number of plants) [3, 11]: 0 | Grade 2 (classification and statistics of the grade of pesticide damage; number of plants) [3, 11]: 0 | Grade 3 (classification and statistics of the grade of pesticide damage; number of plants) [3, 11]: 16 | Classification and statistics of the grade of pesticide damage Grade 0 ([3]; mesotrione 105 g ai/ha): 0 | Classification and statistics of the grade of pesticide damage Grade 1 ([3]; mesotrione 105 g ai/ha): 0 | Classification and statistics of the grade of pesticide damage Grade 2 ([3]; mesotrione 105 g ai/ha): 0 | Classification and statistics of the grade of pesticide damage Grade 3 ([3]; mesotrione 105 g ai/ha): 16
